Ends that are not written are not given here. * marks the point of attachment. Biotin = O=C1N[C@H]2[C@H](CS[C@H]2CCCCC(=O)*)N1

Holding throughout (type): binding
Experiment [1] has as its target T1, PDZ protein (GST-PDZ fusion) (Homo sapiens, UniProt Q13796).
T1 construct: made in house; host or cells: E. coli (DH5alpha, BL21 or JM109)
Description: G' assay (10 uM PL peptide), results of TABLE 7 and TABLE 12. To be noted: PDZ hAPXL, PDZ Domain 1. A digest of the protocol: (§1)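 Same steps as the G-zero format, apart from a peptide concentration of 10 uM in place of 20 uM in step 2. Amino-terminally biotinylated PL peptides bind GST-PDZ fusions, and retained peptide is quantified by 450 nm absorbance.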

The target in experiment [2] is T2, PDZ protein (GST-PDZ fusion) (Homo sapiens, UniProt Q9NR12).
T2 construct: made in house; host or cells: E. coli (DH5alpha, BL21 or JM109)
T2 sequence (Q9NR12 whole entry, the tested form may be a part): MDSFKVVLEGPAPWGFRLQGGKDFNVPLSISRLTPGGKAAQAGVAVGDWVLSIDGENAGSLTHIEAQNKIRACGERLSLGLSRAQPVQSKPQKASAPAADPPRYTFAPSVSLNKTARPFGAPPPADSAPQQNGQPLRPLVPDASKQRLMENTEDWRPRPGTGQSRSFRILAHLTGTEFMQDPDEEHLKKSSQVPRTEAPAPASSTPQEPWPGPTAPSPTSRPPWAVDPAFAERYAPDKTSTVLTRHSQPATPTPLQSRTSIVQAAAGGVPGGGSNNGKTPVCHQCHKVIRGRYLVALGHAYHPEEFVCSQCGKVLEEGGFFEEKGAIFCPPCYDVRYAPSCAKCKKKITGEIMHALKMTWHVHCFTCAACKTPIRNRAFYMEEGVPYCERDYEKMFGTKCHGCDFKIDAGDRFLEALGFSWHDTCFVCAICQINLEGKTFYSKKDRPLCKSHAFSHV
The experiment is described as above. To be noted: PDZ ENIGMA, PDZ Domain 1. A digest of the protocol:
as §1

The target in the next experiment is T3, TIP-1 (GST-TIP-1) (Homo sapiens, UniProt O14907, I73S).
T3 construct: made in house; host or cells: E. coli DH5alpha
T3 sequence (O14907 3-123 I73S): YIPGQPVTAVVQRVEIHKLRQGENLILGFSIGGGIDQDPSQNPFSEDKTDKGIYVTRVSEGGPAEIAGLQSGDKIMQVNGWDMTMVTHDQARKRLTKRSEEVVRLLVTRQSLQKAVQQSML
Description: G assay with unlabeled 8 amino acid competitor peptide (Example 4, FIGS. 2B, 2C). As for the experimental part:
FIGS. 2A, 2B and 2C show binding and competition assays with the PDZ ligands of CD95 (Fas) and Tax for the PDZ domain of TIP-1.
Upon infection, the higher affinity of Tax could preferentially bind TIP-1 protein available in the cell, removing the TIP-1 bound to CD95 (Fas) and thereby rendering the cell less able to undergo apoptosis. In order to test this, competition experiments between Tax and CD95 for TIP-1 binding were performed using the ‘G Assay’, but adding additional unlabeled competitor peptide at step 9 of the ‘G Assay’ presented in EXAMPLE 3 section D.
FIGS. 2B and 2C show the results of these experiments. The graphs show the amount of binding of the biotinylated 20 amino acid peptide in the presence of increasing concentrations of unlabeled 8 amino acid competitor.

Another experiment addresses T4, DLG-1 (Homo sapiens, UniProt Q12959).
T4 construct: protein spans from amino terminal end of first PDZ domain to carboxy-terminal end of third PDZ domain in frame with GST in vector; made in house; host or cells: E. coli DH5alpha
Briefly: G assay competition of short unlabeled peptides with biotinylated 20-mers (Example 6, TABLE 6). Conditions: competitor 50 uM; for % binding: 100 = no competitor. An excerpt: (§2) The potential for unlabeled 8-mers and 3-mers to compete for binding with biotinylated 20-mers to PDZ domains was examined. Interactions between a PDZ domain and two or more biotinylated peptides mimicking PDZ ligands identified through the ‘G Assay’ were used as model interactions. Short, 3 or 8 amino acid, unlabeled peptides were synthesized by standard techniques and used at variable concentrations with a set concentration of biotinylated 20-mer. Ability of both the 3-mer and 8-mer to inhibit longer peptide binding was observed, making PDZ:PL interactions an attractive target for design of small molecule or peptide therapeutics.
(§3) Peptides representing the C-terminal 3, 8 or 20 amino acids of a PDZ ligand were synthesized by standard FMOC chemistry and biotinylated if not used as an unlabeled competitor. Peptides three amino acids in length were acetylated to more properly mimic the peptide bond without introducing an amino-terminal charged group. Peptides were purified by reverse phase high performance liquid chromatography (HPLC) using a Vydac 218TP C18 Reversed Phase column having the dimensions of 10*25 mm, 5 um. Approximately 40 mg of peptide was dissolved in 2.0 ml of and aqueous solution of 49.9% acetonitrile and 0.1% Tri-Fluoro acetic acid (TFA). This solution was then injected into the HPLC machine through a […] syringe filter (Millipore). Buffers used to get a good separation are (A) distilled water with 0.1% TFA and (B) 0.1% TFA with Acetonitrile.
(§4) The G Assay was performed as described in EXAMPLE 3 with the exception that when a short competitor was used, 30 ul of competitor peptide (at twice the final concentration) was mixed with 30 ul biotinylated 20-mer (at twice the final concentration) and then added to the well.
(§5) PSD-95 and DLG-1 were incubated in the wells at 5 ug/ml as described in the G Assay protocol. Biotinylated 20-mer peptides used were 20 uM CLASP-2, 20 uM CD46, 10 uM CD95, and 10 uM KV1.3 (find sequences of peptides in TABLE 8). Competitors (unlabeled, short peptides) tested against each of the biotinylated peptides were 50 uM 8-mer of CD95, 100 uM 8-mer of CD46, 50 uM 8-mer of CLASP-2, and 1 mM and 500 uM acetylated 3-mer of CLASP-2. To deduce sequences, refer to TABLE 8. All absorbances were read at 450 nm after stopping TMB detection reaction at 30 min. Results were normalized in each group by dividing its A450 by the A450 of the PDZ/peptide binding in the absence of competitor and converting to percentage by multiplying by 100.

The target of another experiment is T5, PSD-95 (Homo sapiens, UniProt P78352).
T5 construct: protein spans from amino terminal end of first PDZ domain to carboxy-terminal end of third PDZ domain in frame with GST in vector; made in house; host or cells: E. coli DH5alpha
T5 sequence (P78352 58-398 limits assumed): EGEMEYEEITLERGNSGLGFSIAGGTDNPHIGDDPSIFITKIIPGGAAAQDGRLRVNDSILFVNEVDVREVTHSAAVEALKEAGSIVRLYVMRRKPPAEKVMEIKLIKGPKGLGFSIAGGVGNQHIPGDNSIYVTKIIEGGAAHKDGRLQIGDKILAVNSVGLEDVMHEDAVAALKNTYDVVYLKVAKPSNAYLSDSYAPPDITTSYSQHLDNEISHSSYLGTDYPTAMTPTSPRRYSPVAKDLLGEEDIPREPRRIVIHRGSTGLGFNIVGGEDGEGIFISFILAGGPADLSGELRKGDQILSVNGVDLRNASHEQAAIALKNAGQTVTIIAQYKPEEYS
Described as above. Conditions: competitor 50 uM, 100 = no competitor.
Description: as §2, §3, §4, §5

The target in experiment [3] is T6, PDZ protein (GST-PDZ fusion) (Homo sapiens, UniProt O75970).
T6 construct: made in house; host or cells: E. coli (DH5alpha, BL21 or JM109)
Description: G' assay (10 uM PL peptide), results of TABLE 7 and TABLE 12. To be noted: PDZ MUPP-1, PDZ Domain 10. The gist of the method: as §1

In experiment [4] the target is T7, PDZ protein (GST-PDZ fusion) (Homo sapiens, UniProt Q02410).
T7 construct: made in house; host or cells: E. coli (DH5alpha, BL21 or JM109)
T7 sequence (Q02410 1-837): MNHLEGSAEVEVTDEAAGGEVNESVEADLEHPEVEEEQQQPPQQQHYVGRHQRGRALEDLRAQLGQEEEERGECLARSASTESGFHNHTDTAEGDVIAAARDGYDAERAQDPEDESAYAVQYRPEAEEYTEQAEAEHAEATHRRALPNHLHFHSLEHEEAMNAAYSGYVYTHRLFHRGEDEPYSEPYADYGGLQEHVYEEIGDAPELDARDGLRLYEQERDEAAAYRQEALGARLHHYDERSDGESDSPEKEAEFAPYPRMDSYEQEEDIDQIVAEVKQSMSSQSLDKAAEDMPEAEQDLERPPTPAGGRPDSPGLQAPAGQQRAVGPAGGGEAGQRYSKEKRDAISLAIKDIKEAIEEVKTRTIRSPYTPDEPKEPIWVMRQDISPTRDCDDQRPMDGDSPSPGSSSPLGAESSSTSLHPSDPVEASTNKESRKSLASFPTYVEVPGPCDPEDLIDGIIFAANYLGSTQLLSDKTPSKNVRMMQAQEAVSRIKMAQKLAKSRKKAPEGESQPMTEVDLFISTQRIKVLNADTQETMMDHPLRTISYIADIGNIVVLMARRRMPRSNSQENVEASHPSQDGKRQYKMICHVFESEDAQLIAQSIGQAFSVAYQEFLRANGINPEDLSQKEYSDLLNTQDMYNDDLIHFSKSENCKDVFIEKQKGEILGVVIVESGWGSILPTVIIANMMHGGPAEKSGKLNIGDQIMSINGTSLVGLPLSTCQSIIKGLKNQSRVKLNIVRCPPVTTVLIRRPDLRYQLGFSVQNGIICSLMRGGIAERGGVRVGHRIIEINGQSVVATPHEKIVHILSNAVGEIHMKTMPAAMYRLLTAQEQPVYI
The description is as above. The gist of the method:
as §1

For experiment [5], the target named is T8, PDZ protein (GST-PDZ fusion) (Homo sapiens, UniProt Q12923).
T8 construct: made in house; host or cells: E. coli (DH5alpha, BL21 or JM109)
The experiment is described as above. Conditions: PDZ PTPL-1, PDZ Domain 4. A digest of the protocol:
as §1

Experiment [6] deals with T9, PDZ protein (GST-PDZ fusion) (Homo sapiens, UniProt Q6P0Q8).
T9 construct: made in house; host or cells: E. coli (DH5alpha, BL21 or JM109)
T9 sequence (Q6P0Q8 whole entry, the tested form may be a part): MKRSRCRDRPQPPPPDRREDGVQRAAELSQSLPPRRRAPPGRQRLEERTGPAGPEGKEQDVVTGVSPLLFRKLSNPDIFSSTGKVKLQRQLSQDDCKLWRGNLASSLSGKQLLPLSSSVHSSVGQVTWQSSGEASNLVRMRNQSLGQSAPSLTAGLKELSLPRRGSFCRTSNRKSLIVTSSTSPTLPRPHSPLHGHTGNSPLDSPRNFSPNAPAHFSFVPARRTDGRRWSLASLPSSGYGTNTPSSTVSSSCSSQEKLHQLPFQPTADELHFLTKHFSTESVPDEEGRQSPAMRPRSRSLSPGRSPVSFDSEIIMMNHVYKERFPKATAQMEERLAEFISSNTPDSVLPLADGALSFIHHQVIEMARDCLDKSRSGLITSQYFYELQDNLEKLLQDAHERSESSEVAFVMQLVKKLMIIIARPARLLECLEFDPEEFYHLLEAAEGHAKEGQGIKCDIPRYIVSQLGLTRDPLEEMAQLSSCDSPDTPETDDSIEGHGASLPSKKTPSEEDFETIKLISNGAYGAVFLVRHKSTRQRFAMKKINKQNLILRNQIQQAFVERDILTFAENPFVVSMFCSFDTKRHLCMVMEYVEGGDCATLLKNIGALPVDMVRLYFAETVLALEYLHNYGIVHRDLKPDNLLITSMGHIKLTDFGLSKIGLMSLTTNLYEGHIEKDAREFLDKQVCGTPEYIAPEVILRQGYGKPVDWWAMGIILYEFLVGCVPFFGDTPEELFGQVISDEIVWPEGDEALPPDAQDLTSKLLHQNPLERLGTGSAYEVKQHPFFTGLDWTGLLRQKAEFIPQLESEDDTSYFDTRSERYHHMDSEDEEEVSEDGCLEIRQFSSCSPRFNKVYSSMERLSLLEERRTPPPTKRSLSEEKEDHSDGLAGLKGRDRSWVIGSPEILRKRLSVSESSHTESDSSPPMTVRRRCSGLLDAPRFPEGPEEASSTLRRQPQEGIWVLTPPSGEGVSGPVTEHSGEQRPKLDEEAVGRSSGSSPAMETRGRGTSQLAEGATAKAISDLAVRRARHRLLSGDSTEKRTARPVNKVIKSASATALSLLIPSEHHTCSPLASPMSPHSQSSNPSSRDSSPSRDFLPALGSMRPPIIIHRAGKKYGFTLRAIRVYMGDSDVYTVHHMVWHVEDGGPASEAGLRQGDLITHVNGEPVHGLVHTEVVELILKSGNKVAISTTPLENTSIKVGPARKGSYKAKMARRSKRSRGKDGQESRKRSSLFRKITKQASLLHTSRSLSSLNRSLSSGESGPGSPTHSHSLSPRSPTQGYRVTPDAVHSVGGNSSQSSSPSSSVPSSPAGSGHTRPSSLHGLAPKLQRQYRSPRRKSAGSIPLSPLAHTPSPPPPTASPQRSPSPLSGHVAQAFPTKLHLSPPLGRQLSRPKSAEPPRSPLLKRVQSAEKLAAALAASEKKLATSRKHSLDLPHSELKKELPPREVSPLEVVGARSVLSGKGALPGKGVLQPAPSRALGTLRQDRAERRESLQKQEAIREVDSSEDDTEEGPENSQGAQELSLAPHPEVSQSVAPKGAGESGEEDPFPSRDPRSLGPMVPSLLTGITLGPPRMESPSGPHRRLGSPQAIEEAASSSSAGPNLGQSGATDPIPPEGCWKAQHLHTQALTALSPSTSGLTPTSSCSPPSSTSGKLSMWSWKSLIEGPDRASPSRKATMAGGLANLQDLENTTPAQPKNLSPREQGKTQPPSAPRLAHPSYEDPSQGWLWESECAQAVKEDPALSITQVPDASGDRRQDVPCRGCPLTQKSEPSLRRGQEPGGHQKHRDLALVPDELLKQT
The experiment is described as above. The gist of the method:
as §1

In experiment [7] the target is T10, PDZ protein (GST-PDZ fusion) (Homo sapiens, UniProt Q99767).
T10 construct: made in house; host or cells: E. coli (DH5alpha, BL21 or JM109)
T10 sequence (Q99767 1-749): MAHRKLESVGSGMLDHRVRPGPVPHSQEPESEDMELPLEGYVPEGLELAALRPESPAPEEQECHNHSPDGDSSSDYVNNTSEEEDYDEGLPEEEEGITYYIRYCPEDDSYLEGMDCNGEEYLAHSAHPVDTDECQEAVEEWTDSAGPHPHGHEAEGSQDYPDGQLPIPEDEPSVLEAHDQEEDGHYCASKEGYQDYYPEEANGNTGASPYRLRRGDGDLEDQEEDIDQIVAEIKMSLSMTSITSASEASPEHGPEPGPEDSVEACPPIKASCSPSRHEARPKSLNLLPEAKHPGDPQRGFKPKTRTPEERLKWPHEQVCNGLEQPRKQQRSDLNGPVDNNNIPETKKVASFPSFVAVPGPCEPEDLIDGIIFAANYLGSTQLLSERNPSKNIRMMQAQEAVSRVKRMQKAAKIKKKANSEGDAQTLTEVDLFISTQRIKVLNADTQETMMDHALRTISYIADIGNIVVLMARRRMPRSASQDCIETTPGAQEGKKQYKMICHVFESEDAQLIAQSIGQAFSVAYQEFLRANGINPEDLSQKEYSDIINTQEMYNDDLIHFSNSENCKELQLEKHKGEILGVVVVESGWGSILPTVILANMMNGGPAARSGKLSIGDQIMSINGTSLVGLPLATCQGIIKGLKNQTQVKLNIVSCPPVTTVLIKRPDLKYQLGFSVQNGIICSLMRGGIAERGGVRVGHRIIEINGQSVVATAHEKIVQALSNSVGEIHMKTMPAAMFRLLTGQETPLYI
Described as above. To be noted: PDZ X11-beta, PDZ Domain 2. A digest of the protocol: as §1

Experiment [8] deals with PDZ protein (GST-PDZ fusion). The description is as above. A digest of the protocol:
as §1

The target of experiment [9] is T11, PDZ protein (GST-PDZ fusion) (Homo sapiens, UniProt P50479).
T11 construct: made in house; host or cells: E. coli (DH5alpha, BL21 or JM109)
T11 sequence (P50479 1-330): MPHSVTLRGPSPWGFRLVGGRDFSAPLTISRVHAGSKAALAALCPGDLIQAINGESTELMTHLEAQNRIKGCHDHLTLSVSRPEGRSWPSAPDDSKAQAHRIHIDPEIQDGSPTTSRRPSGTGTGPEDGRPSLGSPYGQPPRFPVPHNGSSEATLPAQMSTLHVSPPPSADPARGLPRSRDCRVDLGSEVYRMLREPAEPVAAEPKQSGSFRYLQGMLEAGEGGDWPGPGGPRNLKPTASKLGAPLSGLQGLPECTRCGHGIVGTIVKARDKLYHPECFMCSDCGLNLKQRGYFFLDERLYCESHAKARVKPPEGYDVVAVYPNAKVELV
The experiment is described as above. To be noted: PDZ LIM RIL, PDZ Domain 1. The gist of the method: as §1

The target of experiment [10] is T12, PDZ protein (GST-PDZ fusion) (Homo sapiens, UniProt P55196).
T12 construct: made in house; host or cells: E. coli (DH5alpha, BL21 or JM109)
Described as above. To be noted: PDZ AF6, PDZ Domain 1. A digest of the protocol:
as §1

Setting [11] is: biotinylated 20-mer CLASP-2 20 uM.
[12] abbreviates: biotinylated 20-mer KV1.3 10 uM.

T4 sequence (Q12959 224-546 limits assumed): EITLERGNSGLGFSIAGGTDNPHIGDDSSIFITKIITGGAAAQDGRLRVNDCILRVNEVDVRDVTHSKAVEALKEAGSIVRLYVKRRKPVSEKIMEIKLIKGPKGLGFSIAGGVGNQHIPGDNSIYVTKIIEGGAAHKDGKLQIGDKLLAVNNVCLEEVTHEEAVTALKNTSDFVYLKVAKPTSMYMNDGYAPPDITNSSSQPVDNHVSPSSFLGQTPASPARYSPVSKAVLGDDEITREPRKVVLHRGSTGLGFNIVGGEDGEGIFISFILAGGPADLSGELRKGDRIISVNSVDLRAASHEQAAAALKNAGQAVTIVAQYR
T1 sequence (Q13796 whole entry, the tested form may be a part): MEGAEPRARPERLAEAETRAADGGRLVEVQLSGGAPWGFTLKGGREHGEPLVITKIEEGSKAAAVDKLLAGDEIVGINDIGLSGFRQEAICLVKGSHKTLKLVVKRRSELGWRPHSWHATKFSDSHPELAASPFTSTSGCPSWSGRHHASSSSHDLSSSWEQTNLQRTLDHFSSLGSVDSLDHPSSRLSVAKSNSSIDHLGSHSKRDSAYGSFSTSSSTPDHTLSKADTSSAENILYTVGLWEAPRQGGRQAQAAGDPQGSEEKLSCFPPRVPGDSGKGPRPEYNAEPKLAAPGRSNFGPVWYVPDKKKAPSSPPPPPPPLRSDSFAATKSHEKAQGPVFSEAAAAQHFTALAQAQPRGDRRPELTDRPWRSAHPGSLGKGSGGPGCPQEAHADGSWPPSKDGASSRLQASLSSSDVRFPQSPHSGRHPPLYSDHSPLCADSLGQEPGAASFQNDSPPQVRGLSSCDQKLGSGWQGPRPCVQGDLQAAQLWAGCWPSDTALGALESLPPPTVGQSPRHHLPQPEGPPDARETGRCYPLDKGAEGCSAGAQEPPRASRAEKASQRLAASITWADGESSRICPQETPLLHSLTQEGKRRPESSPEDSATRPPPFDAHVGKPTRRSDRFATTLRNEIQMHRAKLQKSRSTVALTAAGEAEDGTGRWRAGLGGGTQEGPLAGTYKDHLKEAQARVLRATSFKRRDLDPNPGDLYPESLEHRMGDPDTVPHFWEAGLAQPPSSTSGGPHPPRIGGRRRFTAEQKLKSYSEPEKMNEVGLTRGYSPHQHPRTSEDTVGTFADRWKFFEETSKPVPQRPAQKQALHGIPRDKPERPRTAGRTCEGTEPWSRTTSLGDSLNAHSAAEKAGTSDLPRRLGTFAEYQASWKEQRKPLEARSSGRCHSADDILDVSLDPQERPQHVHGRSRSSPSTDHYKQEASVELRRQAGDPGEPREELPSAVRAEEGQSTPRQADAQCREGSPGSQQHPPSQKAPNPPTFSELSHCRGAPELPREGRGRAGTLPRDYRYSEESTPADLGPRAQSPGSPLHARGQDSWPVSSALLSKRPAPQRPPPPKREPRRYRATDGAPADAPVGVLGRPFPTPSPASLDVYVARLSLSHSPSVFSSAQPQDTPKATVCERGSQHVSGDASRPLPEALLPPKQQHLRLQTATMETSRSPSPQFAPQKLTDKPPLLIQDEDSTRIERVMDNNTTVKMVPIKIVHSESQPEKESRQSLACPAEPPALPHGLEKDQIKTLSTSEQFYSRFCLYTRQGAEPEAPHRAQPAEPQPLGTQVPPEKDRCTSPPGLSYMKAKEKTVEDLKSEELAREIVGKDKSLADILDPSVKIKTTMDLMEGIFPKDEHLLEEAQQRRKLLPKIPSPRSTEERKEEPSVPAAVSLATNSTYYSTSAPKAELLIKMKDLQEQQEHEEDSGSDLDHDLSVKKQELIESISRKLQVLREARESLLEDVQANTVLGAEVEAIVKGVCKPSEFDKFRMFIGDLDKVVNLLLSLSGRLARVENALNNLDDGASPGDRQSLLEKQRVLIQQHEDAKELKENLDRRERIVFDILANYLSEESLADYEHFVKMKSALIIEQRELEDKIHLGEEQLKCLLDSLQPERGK

Take “EVIGYIEKPGVETLEDSVF (Biotin-EVIGYIEKPGVETLEDSVF) [CDW125 (modified)]”: the Classification in experiment [1] and in [2] was 1 (A450 nm 0-1) throughout.
Turning to “RNEIQSLV [CD95 8-mer, unlabeled peptide of the C-terminal 8 amino acids of CD95]”, the “concentration of unlabeled competitor it takes to compete for binding of Tax to TIP-1 (FIG. 2C)” value in the experiment with TIP-1 (GST-TIP-1) (unlabeled 8 amino acid CD95 competitor, 1 μM labeled Tax 20-mer) lay in the range of 100 to 500 µM. Also, in the experiment with TIP-1 (GST-TIP-1) (unlabeled CD95 8-mer versus labeled Tax), the “excess needed to interfere with the binding of Tax to TIP-1” value is ~500 fold. Moreover, the “% binding” value with DLG-1 (biotinylated 20-mer CD46 20 uM) came to 110%; in the experiment with DLG-1 (biotinylated 20-mer CD95 10 uM), 70%; with DLG-1 (setting [11]), 73%; with DLG-1 (setting [12]) it was 84%; with PSD-95 (biotinylated 20-mer CD46 20 uM), 100%; with PSD-95 (biotinylated 20-mer CD95 10 uM) it was 75%. Besides, the “% binding” value in the experiment with PSD-95 (setting [11]) is 92%; in the experiment with PSD-95 (setting [12]) it was 87%. The “reduction of binding of CLASP-2 and CD95 labeled ligand” value with DLG-1 (2.5 to 5-fold excess) was “approximately 30%”.
Take “NGGFAVDKSDTISFTQTSQF [glutamate transporter 3]”: the Classification in [3] is reported as 1 (A450 nm 0-1); in [4] (PDZ Mint 1, PDZ Domain 1, 2), 1 (A450 nm 0-1); in experiment [4] (PDZ Mint 1, PDZ Domain 2), 1 (A450 nm 0-1); in experiment [5] it was 1 (A450 nm 0-1); in experiment [1], 1 (A450 nm 0-1); in experiment [6] (PDZ KIAA807), 1 (A450 nm 0-1). In addition, the Classification is 1 (A450 nm 0-1) in experiment [6] (PDZ KIAA0807(S), PDZ Domain 1); 1 (A450 nm 0-1) in [7]; 1 (A450 nm 0-1) in [8] (PDZ BAI-1, PDZ Domain 4).
With “YSATYSELEDPGEMSPPIDL (Biotin-YSATYSELEDPGEMSPPIDL) [FceRlb]”, the Classification is 1 (A450 nm 0-1) in experiment [9]; 2 (A450 nm 1-2) in experiment [10]; 1 (A450 nm 0-1) in experiment [1]; 2 (A450 nm 1-2) in [2]; 2 (A450 nm 1-2) in experiment [8] (PDZ LIM Protein, PDZ Domain 1).

The record behind these values is patent US20050282743A1, “Molecular interactions in cells” (Arbor Vita Corporation, priority 2001, published 2005).
